Results as given in the supplement of paper PMC9732359.
± gives the uncertainty stated by the source.

Test: protein stability index of a GFP-peptide fusion (yeast GPS) (PSI 1-4); higher = more stable; sorted into four equal gates, so the index is relative within each strain
Outline: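 Tiled 17-residue peptides from yeast proteins were fused downstream of GFP on a plasmid that also expresses Cherry, and the pooled library was carried in yeast. Mid-log cultures grown in leucine-free medium were sorted into four equal gates by GFP/Cherry fluorescence ratio. Plasmids from each gate were PCR-amplified and Illumina-sequenced, and reads were assigned to strains by barcodes. Each peptide's protein stability index is the sum, over gates, of the gate's read frequency multiplied by its gate number.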

Sequence: KLLGVDMQSSVDTGLQP [YLR018C/POM34]
- protein stability index (doa10∆): 3.17 ± 0.077
- protein stability index (pdr5∆): 3.12 ± 0.067
- protein stability index (san1∆): 3.1 ± 0.062
- protein stability index (ubr1∆): 3.14 ± 0.053

Sequence: KLPLLNESLIPLINLAL [YML103C/NUP188]
- protein stability index (doa10∆): 1.69 ± 0.061
- protein stability index (pdr5∆): 2.16 ± 0.068
- protein stability index (san1∆): 1.73 ± 0.079
- protein stability index (ubr1∆): 1.98 ± 0.054

Sequence: KLQLGQLYESGNPVNDA [COR1]
- protein stability index (doa10∆): 3.03 ± 0.076
- protein stability index (pdr5∆): 2.98 ± 0.091
- protein stability index (san1∆): 3.17 ± 0.065
- protein stability index (ubr1∆): 3.01 ± 0.077

Sequence: KLRAARAKAMKFADGFL [RPS3]
- protein stability index (doa10∆): 3.3 ± 0.17
- protein stability index (pdr5∆): 3.03 ± 0.14
- protein stability index (san1∆): 2.44 ± 0.29
- protein stability index (ubr1∆): 3.16 ± 0.065

Sequence: KLSKSATESIKNRRRIH [SMC1]
- protein stability index (ubr1∆): 2.62 ± 0.25

Sequence: KLSQMILDKIFYGVLDQ [RPN6]
- protein stability index (doa10∆): 2.83 ± 0.13
- protein stability index (pdr5∆): 2.99 ± 0.12
- protein stability index (san1∆): 2.92 ± 0.062
- protein stability index (ubr1∆): 2.86 ± 0.11

Sequence: KLSQYVQEMALGGPITK [FAS2]
- protein stability index (doa10∆): 2.6 ± 0.083
- protein stability index (pdr5∆): 2.74 ± 0.055
- protein stability index (san1∆): 2.96 ± 0.049
- protein stability index (ubr1∆): 2.53 ± 0.031

Sequence: KLTAERANLRKYREGQV [POP1]
- protein stability index (doa10∆): 2.91 ± 0.058
- protein stability index (pdr5∆): 3.02 ± 0.07
- protein stability index (san1∆): 2.8 ± 0.073
- protein stability index (ubr1∆): 3.01 ± 0.055

Sequence: KLTILQEGIEAIATTVI [RET1]
- protein stability index (doa10∆): 2.79 ± 0.069
- protein stability index (pdr5∆): 2.32 ± 0.06
- protein stability index (san1∆): 2.51 ± 0.082
- protein stability index (ubr1∆): 2.78 ± 0.037

Sequence: KLVRDSFTSATERHIQV [PRE7]
- protein stability index (doa10∆): 2.78 ± 0.075
- protein stability index (pdr5∆): 2.9 ± 0.055
- protein stability index (san1∆): 3.17 ± 0.055
- protein stability index (ubr1∆): 2.37 ± 0.057

Sequence: KLYTKELSVTGSAINHH [YMR129W/POM152]
- protein stability index (doa10∆): 1.22 ± 0.12
- protein stability index (pdr5∆): 1.35 ± 0.077
- protein stability index (san1∆): 1.46 ± 0.23
- protein stability index (ubr1∆): 1.49 ± 0.06

Sequence: KMFQDIRLSKILEDDFA [CDC53]
- protein stability index (doa10∆): 2.94 ± 0.062
- protein stability index (pdr5∆): 3.04 ± 0.088
- protein stability index (san1∆): 2.62 ± 0.072
- protein stability index (ubr1∆): 2.93 ± 0.063

Sequence: KMWFDVQLRYGDYDSHD [PRP8]
- protein stability index (doa10∆): 1.78 ± 0.12
- protein stability index (pdr5∆): 2.06 ± 0.15
- protein stability index (ubr1∆): 3.06 ± 0.2

Sequence: KNAAESSYMGKHWTEKS [PRP28]
- protein stability index (doa10∆): 3.17 ± 0.12
- protein stability index (pdr5∆): 3.24 ± 0.17
- protein stability index (ubr1∆): 3.46 ± 0.11

Sequence: KNAGLGFKTPKTAIEGS [RPS11A]
- protein stability index (doa10∆): 3.01 ± 0.047
- protein stability index (pdr5∆): 3.12 ± 0.055
- protein stability index (san1∆): 3.11 ± 0.035
- protein stability index (ubr1∆): 3.13 ± 0.041

Sequence: KNDDNSCRNPEHTDVID [YIL149C/MLP2]
- protein stability index (doa10∆): 3.03 ± 0.15
- protein stability index (pdr5∆): 2.75 ± 0.099
- protein stability index (san1∆): 2.98 ± 0.093
- protein stability index (ubr1∆): 2.97 ± 0.086

Sequence: KNDNGGKMNNEVSTSTS [SWI3]
- protein stability index (doa10∆): 3.29 ± 0.08
- protein stability index (pdr5∆): 3.14 ± 0.1
- protein stability index (san1∆): 3.06 ± 0.053
- protein stability index (ubr1∆): 2.65 ± 0.075

Sequence: KNFSPTKRVEKPQLKFK [RRP6]
- protein stability index (doa10∆): 2.33 ± 0.093
- protein stability index (pdr5∆): 2.17 ± 0.1
- protein stability index (san1∆): 2.39 ± 0.1
- protein stability index (ubr1∆): 3.21 ± 0.075

Sequence: KNGKIYLKHNSIAEEIP [RET1]
- protein stability index (doa10∆): 2.97 ± 0.059
- protein stability index (pdr5∆): 2.81 ± 0.05
- protein stability index (san1∆): 2.61 ± 0.074
- protein stability index (ubr1∆): 2.52 ± 0.037

Sequence: KNIHISKRSKIDIINKL [YML103C/NUP188]
- protein stability index (doa10∆): 1.34 ± 0.17
- protein stability index (ubr1∆): 1.49 ± 0.14

Sequence: KNIQSKDSYINANTIET [FAS2]
- protein stability index (doa10∆): 2.9 ± 0.05
- protein stability index (pdr5∆): 2.88 ± 0.043
- protein stability index (san1∆): 2.9 ± 0.038
- protein stability index (ubr1∆): 2.94 ± 0.052

Sequence: KNKKIEVYTKTIEVLDE [POP7]
- protein stability index (doa10∆): 2.12 ± 0.11
- protein stability index (pdr5∆): 2.78 ± 0.11
- protein stability index (san1∆): 2.45 ± 0.15
- protein stability index (ubr1∆): 2.61 ± 0.14

Sequence: KNKYLKDVLAQTSVTTN [SWP82]
- protein stability index (doa10∆): 2.5 ± 0.065
- protein stability index (pdr5∆): 2.5 ± 0.06
- protein stability index (san1∆): 2.71 ± 0.098
- protein stability index (ubr1∆): 2.37 ± 0.044

Sequence: KNLSLLAEEVVDNIVNK [SRP68]
- protein stability index (doa10∆): 3.15 ± 0.092
- protein stability index (pdr5∆): 2.9 ± 0.13
- protein stability index (san1∆): 3.16 ± 0.066
- protein stability index (ubr1∆): 3.01 ± 0.089

Sequence: KNQHRAASWYGSFNEMK [RMP1]
- protein stability index (doa10∆): 2.89 ± 0.048
- protein stability index (pdr5∆): 3.21 ± 0.055
- protein stability index (san1∆): 3.12 ± 0.042
- protein stability index (ubr1∆): 3.18 ± 0.038

Sequence: KNRSTIFWGIRLAKSTE [BRR2]
- protein stability index (doa10∆): 3.04 ± 0.29
- protein stability index (pdr5∆): 2.97 ± 0.16
- protein stability index (ubr1∆): 2.95 ± 0.17

Sequence: KNTLLERLKQLTPNEIK [SWP82]
- protein stability index (doa10∆): 2.8 ± 0.063
- protein stability index (pdr5∆): 2.81 ± 0.065
- protein stability index (san1∆): 2.71 ± 0.046
- protein stability index (ubr1∆): 2.68 ± 0.054

Sequence: KNYTTETDNEMNGNGKP [SIR3]
- protein stability index (doa10∆): 3.24 ± 0.078
- protein stability index (pdr5∆): 3.37 ± 0.054
- protein stability index (san1∆): 3.48 ± 0.043
- protein stability index (ubr1∆): 3.22 ± 0.055
